Experimental data from the supplement of paper PMC10126150.
± gives the standard deviation of the averaged measurements.

System: ATP
Experiment: switch fluorescence ratio, 500 uM ATP over buffer (Cy3 cluster intensity, sum of 5 cycles each) (fold (ratio)); higher = stronger signal-on switching upon ATP binding; sequences stand for … in TCGTCGGCAGCGTCAGATGTGTATAAGAGACAGTTTTTTTTTTTTTTTTTTTTTTTTT…TC
Conditions: aptamer strand: ATP DNA aptamer (quencher-CACCTGGGGGAGTATTGCGGAGGAAGG + anchor), 100 nM annealed; ATP concentration: 500 uM
Procedure, shortened: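 For every switch-domain sequence, the fluorescence ratio is the mean of per-cluster values, each being summed target-cycle Cy3 intensity over summed buffer-cycle Cy3 intensity. Clusters outside 100-1000 RFU were excluded. On a modified Illumina MiSeq flow-cell, the Cy3-labelled switching-strand clusters were annealed to 100 nM quencher-labelled ATP aptamer, imaged in selection buffer and then after 15 min with 500 uM ATP at 22 °C. Five such cycles were run, with NaOH stripping and re-annealing between them.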
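Also: ATP exposure 15 min at 22 °C before imaging.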

Row | Sequence | switch fluorescence ratio
1 | AGATTATAGG | 1.01 ± 0.018
2 | CATGGAAGGC | 0.957 ± 0.03
3 | ATTTTTGAAG | 1.02 ± 0.044
4 | TGTGTTTTGT | 0.979 ± 0.02
5 | AGGTCTATTT | 1.008 ± 0.0024
6 | CGGTTAGATG | 1 ± 0.047
7 | AGGTCAGTTA | 0.998 ± 0.028
8 | GATGGTGTTT | 1 ± 0.034
9 | ACATCCGAGT | 1.05 ± 0.054
10 | CGTCGGAGTC | 1.04 ± 0.031
11 | GCTTGTTCGG | 1.04 ± 0.011
12 | GAATGGATGC | 1.01 ± 0.0064
13 | CTTGTGGCTG | 1.031 ± 0.0033
14 | CGTGGGTCTT | 1.04 ± 0.03
15 | TGGAATTGGA | 1.03 ± 0.093
16 | ATTTTTCTCA | 1.04 ± 0.062
17 | AGGAGGAGTT | 1.01 ± 0.053
18 | AAACAGTATA | 1.03 ± 0.027
19 | TGTTTTGTAT | 1.07 ± 0.052
20 | GGTCGCACGG | 1.02 ± 0.026
21 | GGGCAATGTC | 1.39 ± 0.072
22 | TAGATCTGGG | 1.002 ± 0.0072
23 | TTGAGACAGG | 1.0131 ± 0.00096
24 | GAACTAATAT | 1.01 ± 0.017
25 | TGGCAGGGAT | 1.02 ± 0.067

Row | Sequence | switch fluorescence ratio
26 | GTCGATAGCG | 0.984 ± 0.015
27 | CTGTTCGGCG | 0.979 ± 0.042
28 | GAAGAACCGG | 0.974 ± 0.022
29 | TGATGGGGTT | 0.9969 ± 0.0078
30 | GTTGGGTTCT | 1.03 ± 0.021
31 | AGATGTGACG | 0.9686 ± 0.0087
32 | TTTGCAAAGT | 1.005 ± 0.0069
33 | ATCTCTTTCT | 1.04 ± 0.019
34 | GGGTTCAAAC | 1 ± 0.039
35 | TTTCTATTTG | 1.02 ± 0.029
36 | CCTCGAGGGT | 1.09 ± 0.07
37 | TTAGAAGCCT | 1.14 ± 0.02
38 | TTTTCAGATG | 1.02 ± 0.015
39 | TTGACTGTAG | 0.982 ± 0.013
40 | TTTTACATTC | 1.03 ± 0.056
41 | TTGAGGCACG | 1.04 ± 0.042
42 | CGATGGGATC | 1.13 ± 0.0074
43 | GCAACCCGGT | 1.028 ± 0.0037
44 | AAACGGATGC | 0.9573 ± 0.0092
45 | AAAAGTGACC | 1.01 ± 0.045
46 | GAGCTGGATA | 0.967 ± 0.03
47 | CGTGTCGCTG | 0.971 ± 0.024
48 | AAAGGGGTGG | 0.992 ± 0.043
49 | GTAATATGCG | 0.987 ± 0.018
50 | ATGGGGTAGG | 0.995 ± 0.022

Row | Sequence | switch fluorescence ratio
51 | CTGTAATTAT | 1 ± 0.011
52 | GGATTAAGCT | 1.015 ± 0.0043
53 | AATGAACTCT | 1.02 ± 0.034
54 | GAATAGCCCA | 0.9711 ± 0.0012
55 | TCCAGTATTA | 0.9945 ± 0.0042
56 | TTGCTTCCAC | 1.08 ± 0.032
57 | GCTTGTCGGT | 1.022 ± 0.0096
58 | GTTAGCCGAA | 1.05 ± 0.032
59 | TGGGGGATTG | 0.987 ± 0.031
60 | GGGCTCTGAC | 1.049 ± 0.0084
61 | CTAGGTGGGT | 1.01 ± 0.027
62 | AGTAAAATAG | 0.968 ± 0.017
63 | ATAAAGGGCC | 0.99 ± 0.012
64 | AGGTTCGGCG | 1 ± 0.015
65 | TTTACGGGGA | 1 ± 0.022
66 | TTGAAGCGGT | 1.09 ± 0.11
67 | TTATTGGTCG | 1.02 ± 0.061
68 | TTCCTCCCGT | 2.01 ± 0.95
69 | TTCTATGTTT | 0.996 ± 0.0094
70 | ACTTAATTTG | 1 ± 0.044
71 | CCGGATAGTG | 1.03 ± 0.026
72 | ATAAAAAAGC | 1.02 ± 0.074
73 | CGTGCTTAGT | 1.02 ± 0.022
74 | ACGTGCGCAG | 1.07 ± 0.018
75 | CGCTGATGCT | 1.0852 ± 0.00031

Row | Sequence | switch fluorescence ratio
76 | GATTTTCATG | 1 ± 0.013
77 | CGCTTTATGT | 1.06 ± 0.18
78 | AATGATGCCG | 0.9864 ± 0.008
79 | CGGACTTTTC | 1.042 ± 0.0018
80 | CCTAGCAAGT | 3.19 ± 0.92
81 | CAGGGAGCTG | 1.01 ± 0.027
82 | TTTTATTGTG | 1 ± 0.027
83 | AAAGGAGGGA | 1.01 ± 0.035
84 | TTGGGGGTGT | 1.03 ± 0.1
85 | AAATTTAGCA | 0.99 ± 0.052
86 | CGGCACAGCC | 1.05 ± 0.057
87 | CAGGGTTGTT | 0.992 ± 0.026
88 | TGGTTTAGGC | 0.997 ± 0.011
89 | TTTAATAGCA | 1.01 ± 0.025
90 | CGTTGCACAT | 1.07 ± 0.016
91 | GTGGGTACGG | 1 ± 0.028
92 | GGGGAAGCTT | 1.04 ± 0.055
93 | AGTTGGGTTT | 0.9964 ± 0.0071
94 | TGGGGCTTGA | 0.9684 ± 0.005
95 | GGCTTGGTTA | 1.02 ± 0.015
96 | TGTTATCAGG | 1.01 ± 0.038
97 | TTGGCATATC | 1.89 ± 0.76
98 | ATATTTTCGC | 1.04 ± 0.03
99 | ATCGGGGGGC | 1 ± 0.055
100 | TCTTATAGGG | 1 ± 0.042

Row | Sequence | switch fluorescence ratio
101 | TGTGGTTACA | 0.989 ± 0.025
102 | AGGGGCCTGT | 0.962 ± 0.037
103 | CCGTTGACCG | 1.07 ± 0.057
104 | CGGTTAGGGG | 0.9829 ± 0.0021
105 | ATTTTATGCG | 0.985 ± 0.023
106 | TTGTCAGAGT | 1.001 ± 0.0015
107 | ATTTTTTATT | 0.9923 ± 0.0097
108 | GAACGGGGAA | 0.996 ± 0.015
109 | AGCCTGACTG | 1.12 ± 0.033
110 | AAAGAGTGTG | 0.988 ± 0.037
111 | ATTTAGTTTC | 0.976 ± 0.026
112 | ATAGAACTAG | 1 ± 0.011
113 | TACTATGATT | 1.04 ± 0.018
114 | TATTTCTTTG | 0.979 ± 0.055
115 | GCTGTGTTGG | 1.02 ± 0.013
116 | TGACACTTGG | 0.99 ± 0.011
117 | TTGGTTTACT | 1.22 ± 0.3
118 | CTTAGGGGGC | 1.01 ± 0.051
119 | TTGTAATTTT | 0.991 ± 0.017
120 | GTTGGGTTGC | 0.999 ± 0.018
121 | TTTTGTGTGG | 1.01 ± 0.026
122 | GGTGGTCGAG | 0.989 ± 0.02
123 | CTAAGCAGGG | 1.01 ± 0.016
124 | AATGACTCGT | 0.974 ± 0.01
125 | TTTTAGTCTA | 0.9809 ± 0.0021

Row | Sequence | switch fluorescence ratio
126 | CTCATACCTG | 1.05 ± 0.021
127 | AAGTTTATAA | 1 ± 0.015
128 | GAAATAGATC | 0.953 ± 0.07
129 | CGCTGCACGG | 1.07 ± 0.038
130 | GCAATTAATG | 1 ± 0.015
131 | CAAGATCTGT | 0.9925 ± 0.0031
132 | TTGGCATGAG | 0.987 ± 0.02
133 | CGTAGAGAAA | 0.991 ± 0.044
134 | CATGCTAGAG | 0.99 ± 0.025
135 | ATCGAATGCT | 1.001 ± 0.0096
136 | TTCGGGGTGC | 2.17 ± 1.6
137 | AGGGTTGCGC | 1.02 ± 0.019
138 | TGCGGGTTTT | 1.02 ± 0.016
139 | AAGGATCTGG | 0.977 ± 0.026
140 | GAACGGGACA | 1.18 ± 0.065
141 | GGTGTTTTTG | 1.05 ± 0.054
142 | CATATATTTT | 1.04 ± 0.058
143 | GGTGTAGTAT | 0.9759 ± 0.008
144 | CGGAAGATAT | 1.039 ± 0.00018
145 | GGGGGGCGGA | 1.01 ± 0.039
146 | CTTTTTTTTA | 0.985 ± 0.021
147 | TTCGATTTAT | 1.03 ± 0.024
148 | GTATGAATGG | 0.984 ± 0.049
149 | GGGTACTTGT | 0.999 ± 0.022
150 | TCCCTCTCCG | 1.27 ± 0.36

Row | Sequence | switch fluorescence ratio
151 | CCTTTTGGAT | 1.07 ± 0.073
152 | GCTAATAGTT | 1.01 ± 0.06
153 | TGAGCGGTAG | 1.028 ± 0.004
154 | GACTAGGGGG | 1 ± 0.048
155 | TATTGTGGGG | 1 ± 0.044
156 | TGCATGGCTG | 0.99 ± 0.01
157 | GGAAGAGGAA | 0.988 ± 0.025
158 | TTATCAATAA | 1.42 ± 0.57
159 | GTTGCGAGGG | 1.02 ± 0.016
160 | TTTTTCTACA | 1.11 ± 0.12
161 | AGAGTGGAGA | 1.009 ± 0.0004
162 | CGTTTGATTA | 0.989 ± 0.017
163 | GGGGTGTTAT | 0.955 ± 0.037
164 | AGGGTAAAGT | 0.98 ± 0.018
165 | CAGAGCCATA | 1.05 ± 0.013
166 | TCGGTGGGGT | 0.982 ± 0.0061
167 | GGGGGTACTA | 0.96 ± 0.019
168 | ATGGAAGCTA | 1.02 ± 0.013
169 | CTTTATTTTC | 1.03 ± 0.039
170 | GCGAATATGC | 1.1 ± 0.038
171 | CGGCTCGATA | 0.976 ± 0.02
172 | CAGGTATTCA | 1.0177 ± 8.3e-05
173 | TGACAGTCAG | 0.968 ± 0.02
174 | TGTAAAATGT | 0.998 ± 0.029
175 | GGCTGGGTTT | 1.02 ± 0.026

Row | Sequence | switch fluorescence ratio
176 | CAGATCTGAA | 0.952 ± 0.07
177 | GGCTGAGGCA | 1.01 ± 0.029
178 | TCTTCGGGAA | 1.09 ± 0.06
179 | CAGGGACAAT | 1.04 ± 0.023
180 | TATTCTGGGA | 0.9918 ± 0.0078
181 | AGTCGACGTA | 1.04 ± 0.089
182 | AAGGGAATGG | 1.04 ± 0.046
183 | AAGGCCCCGT | 1.02 ± 0.016
184 | ACACCAGCTA | 0.9876 ± 0.0061
185 | GCCGCATGTG | 1.28 ± 0.036
186 | GCCTAGTATA | 0.9714 ± 0.0049
187 | GGATCATTTA | 1.03 ± 0.042
188 | GGCGCTTTTC | 1 ± 0.058
189 | TTTCCTATAT | 1.08 ± 0.078
190 | GCACTTCCCT | 1.19 ± 0.014
191 | AAGATCCGCT | 1.13 ± 0.027
192 | GTGCTAGCTC | 1.004 ± 0.0034
193 | GTTAGCGAAG | 1 ± 0.019
194 | ATATGCGGGG | 0.949 ± 0.011
195 | TTAAACGGGG | 1.01 ± 0.035
196 | TACCATTTGT | 1 ± 0.044
197 | TATGGTAGGC | 0.9857 ± 0.0042
198 | ACAGTGAAAT | 1.02 ± 0.039
199 | CAAGTTTGC | 1.08 ± 0.017
200 | AGTGGGCGCA | 1.04 ± 0.042
